One data set deals with T1, TB7.7 (Mycobacterium tuberculosis H37Rv, UniProt P9WJ11 P9WJ11:1-81).
T1 sequence: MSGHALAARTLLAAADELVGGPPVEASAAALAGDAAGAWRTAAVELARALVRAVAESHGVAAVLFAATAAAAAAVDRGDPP
As to the kind of experiment: fluorescence of Cy3-aptamer bound to TB7.7 magnetic beads; 20 mM Tris, 50 mM NaCl, 5 mM KCl, 5 mM MgCl2, pH 8.0. As to conditions: tags: His6-tag, pET32a vector, expressed in E. coli BL21(DE3); label: Cy3. As to the method:
16 μg of TB7.7 was mixed with 10 μL of magnetic beads, and then incubated in 100 μL of a binding buffer (20 mM Tris, 50 mM NaCl, 5 mM KCl, 5 mM MgCl₂, pH 8.0) for 1 hour. To separate unbound TB7.7, washing was performed twice with a binding buffer. Subsequently, the resulting mixture was incubated together with various concentrations of a Cy3-labeled aptamer for an hour, and an unbound aptamer was removed by washing. The amount of Cy3-labeled ssDNA aptamer bound to the magnetic beads with TB7.7 immobilized thereon was measured by fluorescence measurement (1420 Victor Multilabel counter, PerkinElmer, USA) by separating only Cy3-labeled ssDNA bound to TB7.7.

The target in another data set is ESAT6 (Mycobacterium tuberculosis, UniProt P9WNK7 P9WNK7:2-95). As to the kind of experiment: impedance biosensor, 10 pM protein in PBS; aptamer taken as TG4. An excerpt: (§1) At this time, each protein was mixed at a concentration of 10 pM with PBS and used for detection.
The next data set concerns the target CFP10 (Mycobacterium tuberculosis, UniProt P9WNK5 P9WNK5:2-100). The data set is described as above.
Description: as §1

B1: TG5 (ssDNA)
DNA: CACCTAATACGACTCACTATAGCGGATCAGAATTTCTGTAATTAAGCGATAAATTGCTTAATAGGCACTCTCTGGCTCGAACAAGCTTGC
As usually defined, the Kd is a measure of binding affinity in units of concentration. Read a low Kd as a tighter complex. B1: binding with TB7.7 was put at a Kd of 106 nM.

B2: TG4 (ssDNA)
DNA: CACCTAATACGACTCACTATAGCGGATCCGAAAGTTGTTAGTAGACTTAGGGGAGGGTTAAAGTGGGGTGGCTGGCTCGAACAAGCTTGC
B2 had a Kd with TB7.7 of 37.5 nM.

B3: TG4 immobilized on gold electrode (ssDNA)
DNA: CACCTAATACGACTCACTATAGCGGATCCGAAAGTTGTTAGTAGACTTAGGGGAGGGTTAAAGTGGGGTGGCTGGCTCGAACAAGCTTGC
With B3, the binding result with ESAT6 and in the data set with CFP10 was “no binding” throughout.

B4: TG6 (ssDNA)
DNA: CACCTAATACGACTCACTATAGCGGATCCGACACGAAGGATACTCAGTAGTACCCAGGTTGGTAGGGTAGCCTGGCTCGAACAAGCTTGC
In turn, B4 showed an equilibrium dissociation constant (Kd) with TB7.7 of 34.3 nM.

Values taken from patent US20200407722, “DNA APTAMER […] BINDING TO TB7.7, AND USE […]” (MD APTUS INC., published 2020).
